Test: label from the status in PepcDB records

| Sequence | protein production |
| --- | --- |
| MSISDNSRDQLGELPAGRPLQSDFDNDLDYPRLGSVTFRRGTLTENQQTMWDEKWPELGRVLEDELIDVDAWFGREGAKTIVEIGSGTGTSTAAMAPLEADTNIVAVELYKPGLAKLMGSVVRGEIDNVRMVRGDGIEVLNRMFADGSLDGIRVYFPDPWPKARHNKRRIIQSGPLNLFAKKLKPGGVLHVATDHADYAEWINELVEVEPLLEYKGWPWEECPQLTDRQVITKFEGKGLEKDHVINEYLWQKVQN | failed |
| PSEPVTDEYLTSVTIGERKPLNDRIQLAEYDLRWPSMFSVAADKIRSALSEKALLVEHVGSTSVPGLAAKLIIDMLLGVTDSADEKSYVLPLEQQGFVLQAREPGWYEHRFFRLKSGDMEWHLHVFSAECEEIDRMLAFRNWLRVHDDDRQRYENVKRTLAARTWKHMQNYADAKSDIVREILGRA | failed |
| MSNVVWTNFGRSSPDRMRARGGKLMAEPDFEAQLTRMFAQAPSFPDAALFNAEVMAKLDRGWAMRRMFIAVAGTGAGLIGAFQIFGSRFSNELAQLSREGSHGLETEINGGWAKLTALLSTPSSAEAVWLAAGLAVVALAFAVTRLVEDF | failed |
| AEIDTSSIVEMVQGAEDAPVEVIEYASYTCPHCAAFHEGPYKKLKADFIDTGKVRFIYREVYFDRYGLWASMVARCAGPEKFFGISDLIYKGQAEWSRAGGPAEIAEELRKIGRLAGIENDKLEACLGDATKAQTLVAWYQEHATRDDINSTPSFMINGKKVENQAYDGFKALIEAELGN | not failed |
| MEVNGEEERRSRREDEEKEDYYYSLLNSPCSVCNKFVQAILKCLGLESSSIPPSSSSSSPSLVEEEDSGTETVEETGFMARITAVLRRRPRPPPYSSGRPGQNN | not failed |
| MSKGTLFTIAVTPKIPPRLARLEDLANDLWYSWDRATRSLFSRLDPSLWGAVGHNPKAFLKRVDETLLLKAAEDQVFLANYNSIVSAYDYYHSETLWNGIDASLNPSDKIAYFCFEFGFHESFPIYSGGLGILAGDHCKAASDLRLPLIGIGLLYRQGYFFQTIDNQGNQQVIYADSDFSDLPVAPVLREDGSEVRIKVELLQRPVAIKVWRAKIGHVSLYLLDTDLPENSPGDRDITHQLYGGDRVMRIEQEIVLGVGGIRALREMGIEPTIWHINEGHAAFMMLERIRGHVQQGLDFPAALEAVAASTVFTTHTAVPAGHDHFSDDMMNAYFEPFYRDLKITREDFLALGRVPGSDDFNMTDLAIRASRYQNGVSKIHGNVSARICKDVWPQIEPEENPMSYITNGVHVPTFLAQEWADLFDRYLGYEWRNNMCDTEYWSRIDTIPDHLFWSVRQTLKSQMFYGIRARLTTQNARNHGSEAHLDRLLRFTDPINPNILTLGFGRRFATYKRATLLFEDLDWLRRIMLDQEHPVMIVFAGKAHPADVPGQDLIRRVSEIARMPEFEGQILLVEDYDLRLARRLVAGVDVWINSPVYPLEASGTSGMKAGINGTINLSVLDGWWGEGYDGKNGWAIKPGPENMDAVRRDKEESKDFYETLQDHVVPLYYNRDKLGYSSGWVKMAKNSMKSLLPRYNATRMITEYTMKFYLPAKKQGALYAADDFSNARKIAAWKAFVREAWPGVTIRRLDKPFSQISFGEAVDFRVAVRLNGLHPEDVVVELLICRRLKKTTLCSFKHVRFQFRGIEEESAEHLFELDHTPDLCGKLDYYIRVYPYHALLTHPFEMGMMVWL | failed |
| AIVNASNNAILTTSITGEILSANPAAVQMFQSLEQELKGISVSRLFAEKDEMHFFFDFQSNVYSLQRKALGISVECLSLRSDGTEFPAQAELQWADRAKQPLIVITFINLS | failed |
| MLQTINKTLGKIMPLLTPLSVVSGVLLADYLNGLASLVPWIFAFMTFAGSLGANFQSLKTAVAHPLPMFLALFVLHIFMPVLAWSTGHLVFSGDSLTITGLTLGVVIPTGITSMIWAAMYKGNIGLTLSIILVDTILSPFIVPFSLSILAGAHVEMDVIGMMKGLVGMIVIPSLLGMLVNQFSTPERTVRLSANCAPFSKVGLAAVVAINSSVVAPYLKNVDLKFLTIAVTVFLVAFTGYLTAWLIGRLMKRPQEEIVALIFTGGMRNISAGAVLATSFFPPQVAVPVVIGMLFQQILAALFGHLLARSELKKAHHLDKKTSLPS | failed |

Reference: a protein production outcome set (Wang et al. 2014)
